Reference: US20260256913A1 (UTC TYHERAPEUTICS SHANGNAI, published 2026)

Key:
[1] = target: T1, CD40-Fc recombinant protein (human, UniProt P25942 21-193); experiment: flow cytometry, CD40-Fc staining of transduced T cells at day 13
T1 construct: also called CD40-Fc protein; CD40-Fc antigen; not shown: Fc part; detected with anti-human IgG Fc antibody
From the text: Lentivirus-based CART cells were generated using the following procedures: T cells were isolated from PBMC and activated by anti-CD3/CD28 beads (T cell:beads=1:3). […] At day 13, the CAR expression was detected using anti-CD27 antibody, and the expression of LACO was detected using CD40-Fc (FIG. 42A-42B and Table 10). Generally, the transduction efficiency was between 30% to 50%.

[2] = target: CD40-Fc recombinant protein (human) (UniProt P25942); experiment: flow cytometry, CD40-Fc staining of transduced T cells at day 13; control CAR without LACO

LACO % (cells positive in CD40-Fc staining) [1] [%]	LACO/MFI (CD40-Fc staining) [1] [MFI]	LACO % (cells positive in CD40-Fc staining) [2] [%]	LACO/MFI (CD40-Fc staining) [2] [MFI]	Binder
27.3	127			LACO A409-9.3h11 (of CD27z-9-9.3) (bispecific antibody, Anti-CD40 scFv 409 joined to anti-CD28 scFv 9.3h11, co-expressed with CD27z through T2A) QAVLTQPPSASGAPGQRVSISCSGGSSNIGSHTVNWYQQLPGAAPRLLMFSNYQRPSGVPDRFSASKSGTSASLAISGLRSEDEADYYCAAWDGTLKGYVFGTGTKVTVLGGGGSGGGGSGGGGSEVQLVESGGGVVLPGRSLRLSCAASGFTLRSYGMHWVRQATGKGLEWVSAIGTAGDTYYPGSVKGRFTISRENAKNSLYLQMNSLRAGDTAVYYCARADRLGGYGMDVWGQGTTVTVSSGGGGSQVKLQESGPGLVKPSETLSITCTVSGFSLSDYGVHWVRQSPGKGLEWLGVIWAGGGTNYNSALMSRKTISKDNSKSQVFLKMSSLTAADTAVYYCARDKGYSYYYSMDYWGQGTTVTVSSGGGGSGGGGSGGGGSDIQLTQSPSSLSVSVGDRVTISCRASESVEYYVTSLMQWYQQKPGQAPKLLIFAASNVESGVPSRFSGSGSGTNFTLTISSVQEEDFAMYFCQQSRKVPYTFGGGTKLEIK
		2.9	44.3	CD27-CAR (CD27z) (protein) ATPAPKSCPERHYWAQGKLCCQMCEPGTFLVKDCDQHRKAAQCDPCIPGVSFSPDHHTRPHCESCRHCNSGLLVRNCTITANAECACRNGWQCRDKECTECDPLPNPSLTARSSQALSPHPQPTHLPYVSEMLEARTAGHMQTLADFRQLPARTLSTHWPPQRSLCSSDFIRILVIFSGMFLVFTLAGALFLHQRRKYRSNKGESPVEPAEPCRYSCPREEEGSTIPIQEDYRKPEPACSPRVKFSRSADAPAYQQGQNQLYNELNLGRREEYDVLDKRRGRDPEMGGKPRRKNPQEGLYNELQKDKMAEAYSEIGMKGERRRGKGHDGLYQGLSTATKDTYDALHMQALPPR
51.4	221			LACO A4025-9.3h11 (of CD27z-25-9.3) (bispecific antibody, Anti-CD40 scFv 4025 joined to anti-CD28 scFv 9.3h11, co-expressed with CD27z through T2A) QSALTQPASVSGSPGQSITVSCTGTRSDIGDYNYVSWYQQHPGKAPKLIIYDVSSRPSGVSNRYSGSKSGNTASLTISGLQAEDEADYYCSSYTSSSTLVFGGGTKVTVLGGGGSGGGGSGGGGSQVQLVQSGGGLVQPGGSLRLSCAASGFTFSSNWMSWVRQAPGKGLEWVANINQDGSEKYYVDSVKGRFTISRDNAKNSLYLQLNSLRAEDTAEYYCARGGYRYAYWGQGTLVTVSSGGGGSQVKLQESGPGLVKPSETLSITCTVSGFSLSDYGVHWVRQSPGKGLEWLGVIWAGGGTNYNSALMSRKTISKDNSKSQVFLKMSSLTAADTAVYYCARDKGYSYYYSMDYWGQGTTVTVSSGGGGSGGGGSGGGGSDIQLTQSPSSLSVSVGDRVTISCRASESVEYYVTSLMQWYQQKPGQAPKLLIFAASNVESGVPSRFSGSGSGTNFTLTISSVQEEDFAMYFCQQSRKVPYTFGGGTKLEIK
